# Assay results published in patent publication US20190309059A1 (SHANGHAI PHARMAEXPLORER, published 2019).
# T1: mouse IL-13 (purchased from sino biological) (mouse, UniProt P20109 19-131)
# T1 chain: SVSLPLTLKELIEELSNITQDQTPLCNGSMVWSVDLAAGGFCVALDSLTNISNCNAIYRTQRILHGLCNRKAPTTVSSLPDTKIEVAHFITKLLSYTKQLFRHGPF
# Tests used:
# [1] = target: mouse IL-13 (purchased from sino biological) (mouse) (UniProt P20109); experiment: ELISA, mouse IL-13; antibody at 0.53 nM
# [2] = target: mouse IL-13 (purchased from sino biological) (mouse) (UniProt P20109); experiment: ELISA, mouse IL-13; antibody at 0.004 nM
# [3] = target: mouse IL-13 (purchased from sino biological) (mouse) (UniProt P20109); experiment: ELISA, mouse IL-13; antibody at 0.000 nM
# [4] = target: mouse IL-13 (purchased from sino biological) (mouse) (UniProt P20109); experiment: ELISA, mouse IL-13; antibody at 0.001 nM
# [5] = target: mouse IL-13 (purchased from sino biological) (mouse) (UniProt P20109); experiment: ELISA, mouse IL-13; antibody at 0.021 nM
# [6] = target: mouse IL-13 (purchased from sino biological) (mouse) (UniProt P20109); experiment: ELISA, mouse IL-13; antibody at 0.11 nM
# [7] = target: cynomolgus IL-13 (purchased from sino biological) (cynomolgus) (UniProt Q0PW92); experiment: ELISA, cynomolgus IL-13; antibody at 2.67 nM
# [8] = target: cynomolgus IL-13 (purchased from sino biological) (cynomolgus) (UniProt Q0PW92); experiment: ELISA, cynomolgus IL-13; antibody at 0.004 nM
# [9] = target: cynomolgus IL-13 (purchased from sino biological) (cynomolgus) (UniProt Q0PW92); experiment: ELISA, cynomolgus IL-13; antibody at 0.53 nM
# [10] = target: cynomolgus IL-13 (purchased from sino biological) (cynomolgus) (UniProt Q0PW92); experiment: ELISA, cynomolgus IL-13; antibody at 0.021 nM
# [11] = target: mouse IL-13 (purchased from sino biological) (mouse) (UniProt P20109); experiment: ELISA, mouse IL-13; antibody at 2.67 nM
# [12] = target: T1, mouse IL-13 (purchased from sino …); experiment: ELISA, mouse IL-13; antibody at 0.004 nM
# [13] = target: T1, mouse IL-13 (purchased from sino …); experiment: ELISA, mouse IL-13; antibody at 0.000 nM
# cynomolgus IL-13 (purchased from sino biological) (cynomolgus), sequence (Q0PW92 entry or part of it): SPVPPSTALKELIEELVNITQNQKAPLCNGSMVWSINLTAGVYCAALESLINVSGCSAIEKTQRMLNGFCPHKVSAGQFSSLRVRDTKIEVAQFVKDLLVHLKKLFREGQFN
Molecule,OD450 nm [1],OD450 nm [2],OD450 nm [3],OD450 nm [4],OD450 nm [5],OD450 nm [6],OD450 nm [7],OD450 nm [8],OD450 nm [9],OD450 nm [10],OD450 nm [11],OD450 nm [12],OD450 nm [13]
IgG control (mouse IgG) (antibody),0.08,0.07,0.1,0.07,0.07,0.08,0.1,0.061,0.08,0.068,0.08,,
"29D9H8 (lead antibody, mouse hybridoma) (antibody, V domains shown, Mouse monoclonal antibody purified from hybridoma supernatant on Protein G) VH: QVQLQQSGAELVRPGASVTLSCKASGYTFTDYEMHWVKQTPVHGLEWIGGIDPETGGTASNQKFKGKAILTADKSSSTAYMELRSLTSEDSAVYYCTSGDYFGGGPFAYWGQGTLVTVSA VL: DIKMTQSPSSMYASLGERVTITCKASQDINSYLSWFQQKPGKSPKTLIYRANRLVDGVPSRFSGSGSGQDYSLTISSLDYEDMGIYYCLQYDEFPYTFGGGTKLEIK",,,,,,,,,,,,0.07,0.07
"28A2E11 (lead antibody, mouse hybridoma) (antibody, V domains shown, Mouse monoclonal antibody purified from hybridoma supernatant on Protein G) VH: EVQLQQSGAELVKPGASVKLSCTASGFNIKDYYMHWVKQRTEQGLEWIGRIDPEDGETKYAPKFHDKATLTADTSSNTAYLQFSSLASEDTAVYYCTRYDYYGPFAYWGQGTLVTVSA VL: QAVVTQESVLTTSPGETVTLTCRSSTGAVTTSNYANWVQEKPDHLFTGLIGGTNNRAPGVPARFSGSLIGDKAALTITGAQTEDEAIYFCALWYINHFIFGSGTKVTVL",,,,,,,,,,,,0.07,0.07
